From US20170131281A1

Key:
[1] = molecular target: HL60 cells surface antigens; assay: flow cytometry on HL60 cells, sandwich with anti-c-myc-FITC
[2] = molecular target: KG1 cells surface antigen (6B protein binding surface antigen, unidentified); assay: flow cytometry on KG1 cells, sandwich with anti-c-myc-FITC

FITC+: % Vis [1]: 4.5%
FITC+: GeoMean [1]: 9.8
FITC+: mean [1]: 10.7
FITC+: median [1]: 8.9
FITC+: % Vis [2]: 100%
FITC+: GeoMean [2]: 28.1
FITC+: mean [2]: 29.4
FITC+: median [2]: 28.4
B1: 6B antibody in an scFv format (Clone 6B) (scFv, not shown: small tags and cut ends)
scFv: EVQLLESGGGLVQPGGSLRLSCAASGFTFSSYGMSWVRQAPGKGLEWVSTIRTAGRATEYADSVKGRFTISRDNSKNTLYLQMNSLRAEDTAVYYCAKSPQTFDYWGQGTLVTVSSGGGGSGGGGSGGGGSTDIQMTQSPSSLSASVGDRVTITCRASQSISSYLNWYQQKPGKAPKLLIYRASRLQSGVPSRFSGSGSGTDFTLTISSLQPEDFATYYCQQRLTIPITFGQGTKVEIKRAAA
